For 2 substances, Estimated half-maximal effective antibody concentration (ng/mL), plaque neutralization on Vero cells and % binding of RSV to the coating mAb relative to control IgG results are on record in patent publication US20160122418A1.

Experiment [1] deals with F protein of RSV reference strain RSV-B (ATCC VR 1580) (RSV-B (ATCC VR 1580)) (UniProt P13843). Nature of the experiment: cell-based or functional assay.
In experiment [2] the target is F protein of RSV reference strain RSV-A Long (ATCC VR-26) (RSV-A Long (ATCC VR-26)) (UniProt P12568). In words: cell-based or functional assay.
Chain of F protein of RSV reference strain RSV-A Long (ATCC VR-26) (RSV-A Long (ATCC VR-26)) (P12568 26-574): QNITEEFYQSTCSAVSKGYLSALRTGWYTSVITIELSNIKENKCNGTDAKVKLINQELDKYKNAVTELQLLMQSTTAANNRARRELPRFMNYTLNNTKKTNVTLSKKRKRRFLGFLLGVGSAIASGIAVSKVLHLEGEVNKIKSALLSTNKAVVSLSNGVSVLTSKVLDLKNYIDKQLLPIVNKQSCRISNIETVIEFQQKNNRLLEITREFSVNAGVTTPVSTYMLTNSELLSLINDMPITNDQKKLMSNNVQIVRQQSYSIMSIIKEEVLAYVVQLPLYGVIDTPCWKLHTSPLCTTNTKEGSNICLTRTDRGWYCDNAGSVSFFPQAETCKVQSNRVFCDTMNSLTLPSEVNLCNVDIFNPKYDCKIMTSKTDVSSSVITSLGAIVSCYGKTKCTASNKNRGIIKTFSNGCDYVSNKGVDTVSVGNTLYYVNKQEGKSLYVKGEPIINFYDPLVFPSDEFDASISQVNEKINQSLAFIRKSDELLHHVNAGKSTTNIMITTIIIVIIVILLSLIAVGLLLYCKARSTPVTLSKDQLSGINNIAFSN
In experiment [3] the target is F protein on intact RSV particles (Example 10, strain or isolate not stated) (RSV, strain not stated). In words: competition ELISA; RSV particles pre-incubated with control mAb at 20 µg/mL (the reference); competitor (coating mAb): palivizumab.
The target is the same in experiment [4]. In words: competition ELISA; RSV particles pre-incubated with control mAb at 20 µg/mL (the reference); competitor (coating mAb): AR201.

Chain of F protein of RSV reference strain RSV-B (ATCC VR 1580) (RSV-B (ATCC VR 1580)) (P13843 26-574): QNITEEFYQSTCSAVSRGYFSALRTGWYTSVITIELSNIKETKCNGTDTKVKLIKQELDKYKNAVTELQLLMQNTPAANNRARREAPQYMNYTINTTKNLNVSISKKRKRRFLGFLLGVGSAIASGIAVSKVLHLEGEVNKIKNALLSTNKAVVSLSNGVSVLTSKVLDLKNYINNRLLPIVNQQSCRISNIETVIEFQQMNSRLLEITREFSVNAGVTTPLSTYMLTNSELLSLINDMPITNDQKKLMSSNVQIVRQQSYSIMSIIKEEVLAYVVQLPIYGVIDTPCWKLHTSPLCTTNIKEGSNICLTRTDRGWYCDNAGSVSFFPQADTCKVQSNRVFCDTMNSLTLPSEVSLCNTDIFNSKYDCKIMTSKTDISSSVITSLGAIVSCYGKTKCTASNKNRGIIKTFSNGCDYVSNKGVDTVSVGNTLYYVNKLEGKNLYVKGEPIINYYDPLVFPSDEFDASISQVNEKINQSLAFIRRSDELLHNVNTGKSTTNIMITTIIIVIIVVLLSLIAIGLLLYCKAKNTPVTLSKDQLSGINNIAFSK

Regarding palivizumab (antibody), the Estimated half-maximal effective antibody concentration (ng/mL), plaque neutralization on Vero cells in experiment [1] was 200 ng/mL; in experiment [2], 100 ng/mL.

For “unrelated fully human monoclonal IgG1 antibody (control)”, the % binding of RSV to the coating mAb relative to control IgG in experiment [3] and in experiment [4] was 100% throughout. Further, the Estimated half-maximal effective antibody concentration (ng/mL), plaque neutralization on Vero cells in experiment [1] and in experiment [2] was more than 1000 ng/mL each time.
